The values below come from patent EP4748858A1 (Nanjing Probio Biotech Co., Ltd., dated 2026).

Assay [1] addresses T1, mouse CD7 (ACROBiosystems, CD7-M52H3) (mouse, UniProt P50283 24-150).
T1 construct: Bought recombinant protein; also called Mouse CD7 protein
T1 sequence (looked up): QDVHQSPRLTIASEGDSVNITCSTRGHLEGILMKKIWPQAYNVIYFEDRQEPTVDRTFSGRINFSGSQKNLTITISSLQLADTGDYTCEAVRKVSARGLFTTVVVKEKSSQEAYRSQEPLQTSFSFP
Put plainly: indirect ELISA, plate coated with 1 µg/ml mouse CD7.

For assay [2], the target named is T2, recombinant protein of the human CD7 extracellular domain, CD7-His (human, UniProt P09564 26-180).
T2 construct: range 25-645; also called human CD7-His protein; recombinant human CD7; not shown: His protein tag
T2 sequence (looked up): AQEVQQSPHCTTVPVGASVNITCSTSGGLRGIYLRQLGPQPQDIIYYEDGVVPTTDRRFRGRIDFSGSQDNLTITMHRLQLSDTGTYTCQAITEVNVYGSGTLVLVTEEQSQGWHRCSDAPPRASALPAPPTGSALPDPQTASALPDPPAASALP
Kind of assay: SPR Biacore T200, antibody captured via Fc, human CD7 as analyte. In general terms: Surface plasmon resonance follows binding to a sensor surface in real time, without labels.

In assay [3] the target is T2, recombinant protein of the human CD7 …. Put plainly: indirect ELISA, plate coated with 1 µg/ml human CD7, anti-human IgG Fc-HRP. (An ELISA detects its analyte on a solid surface through an enzyme-linked reagent.)
In assay [4] the target is T3, monkey CD7 (Sino Biological, 90993-H08H) (monkey).
T3 construct: Bought recombinant protein; also called Monkey CD7 protein
Kind of assay: indirect ELISA, plate coated with 1 µg/ml monkey CD7, anti-human IgG Fc-HRP.

B1: AHP19485 (Fc fusion)
chain: EVQLVESGGGLVQPGGSLRLSCASSERIFSIHAMGWYRQAPGKQRELVASITIGGSTHYADSVKGRFTISRDNAKNTVYLHMNSLKPEDTAVYYCNSMLLAGTVGGSWGQGTQVTVSS
notes: Alpaca VHH expressed as fusion to human IgG1 Fc; also called AHP19485-VHH; not shown: human IgG1 Fc of expression vector pcDNA3.4-Fc (HuIgG1)
As to B1, in assay [1], the binding result was “no binding (tested: 8 µg/ml (about 100 nM))”. For the same molecule, in assay [2], the dissociation constant Kd was 0.289 nM, the koff was 7.73e-05 s⁻¹ and the kon came to 268000 M⁻¹ s⁻¹. Moreover, in assay [3], the EC50 was 0.168 nM.

B2: AHP19484 (Fc fusion)
chain: QVKLEESGGGLVQPGGSLRLSCVASGSSFHFAFMGWYRQAPGKQRELVADISPGNSTNYADPVKGRFVISRDNAKNTVYLQMNSLKPEDTAVYFCRDLRSWGAWGRGTQVTVSS
notes: Alpaca VHH expressed as fusion to human IgG1 Fc; also called AHP19484-VHH; not shown: human IgG1 Fc of expression vector pcDNA3.4-Fc (HuIgG1)
For the molecule B2, the binding result in assay [1] is reported as “no binding (tested: 8 µg/ml (about 100 nM))”. Moreover, in assay [2], the Kd came out at 0.12 nM, the off-rate (koff) turned out to be 6.03e-05 s⁻¹ and the kon came out at 502000 M⁻¹ s⁻¹. In assay [3], the concentration giving a half-maximal response (EC50) was determined as 0.278 nM. Further, the EC50 in assay [4] was determined as 7.03 nM.

B3: AHP19494 (Fc fusion)
chain: QVKLEESGGGLVQAGGSLRLSCAAPGRTLSASIKAWFRQAPGKDREFAAAIRWSGDSTYYADSVKGRFTISRDNAKNTVDLQMNSLKPEDTAVYYCNAGGLLSNGYQPGSSWGQGTQVTVSS
notes: Alpaca VHH expressed as fusion to human IgG1 Fc; not shown: human IgG1 Fc of expression vector pcDNA3.4-Fc (HuIgG1)
Take B3: the binding result in assay [1] is “no binding (tested: 8 µg/ml (about 100 nM))”. Further, the concentration for a half-maximal effect (EC50) in assay [3] stood at 1.47 nM.

B4: AHP19487 (Fc fusion)
chain: DVQLVESGGGLVQPGGSLRLSCAFPGSAFSFYFMGWYRQAPGKQRELVGDITPGGTANYADSVKGRFTISRDSAKNTVYLQMNSLKPEDTAVYYCNADRRVTIRPDGYWGQGTQVTVSS
notes: as for B3
For B4, the binding result in assay [1] was “no binding (tested: 8 µg/ml (about 100 nM))”. The EC50 in assay [3] is 0.173 nM.

B5: AHP19509 (Fc fusion)
chain: QVKLEESGGGLVQAGGSLRLSCAASGGTFNRYTMGWFRQAPGKEREFVAAISWSGGSTDYADSVKGRFTISRDNTKNTVYLQMNSLKPEDAAVYYCDTDRMPYRPVAAGILSWEANWGQGTQVTVSS
notes: Alpaca VHH expressed as fusion to human IgG1 Fc; also called AHP19509-VHH; not shown: human IgG1 Fc of expression vector pcDNA3.4-Fc (HuIgG1)
In the case of B5, the binding result in assay [1] is given as “no binding (tested: 8 µg/ml (about 100 nM))”. In assay [2], the Kd worked out at 0.0765 nM, the off-rate (koff) turned out to be 2.3e-05 s⁻¹ and the on-rate (kon) was found to be 301000 M⁻¹ s⁻¹. The half-maximal effective concentration (EC50) in assay [3] was 0.209 nM.

The term Kd denotes the equilibrium constant for the complex coming apart. One may read the koff as the first-order rate constant of dissociation. In general, kon refers to the second-order rate constant of association. A word on the EC50: it is the concentration needed to bring the measured effect to its halfway point.
